Measured values taken from patent US20080194611A1, “Modulation of Cell Barrier Dysfunction” (priority 2005, published 2008).

Molecular target: membrane protein on P. aeruginosa (whole cells, membrane fractions, solubilized membrane proteins of (Pseudomonas aeruginosa))

Chain of recombinant human IFN-γ (rH IFN-γ) (P01579 24-166 limits assumed): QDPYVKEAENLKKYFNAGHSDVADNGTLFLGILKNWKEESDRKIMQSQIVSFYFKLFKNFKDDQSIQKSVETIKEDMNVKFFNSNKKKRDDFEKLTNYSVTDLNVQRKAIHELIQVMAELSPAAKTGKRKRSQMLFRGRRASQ

## recombinant human IFN-γ (rH IFN-γ) (from UniProt P01579 24-166) (ligand)
  percent of bacterial cells that bound IFN-γ: 73%
